Reference: doi:10.1101/2024.09.16.613340

Molecular target: KSS-1::Strep (C. tropicalis)
Assay: SEC-MALS

SKR-1 (untagged) (natural protein)
stoichiometry N: 1
